Measurements reported in US20240116985A1 (published 2024).
Starred links: 1 amine or outer side, 2 acyl side, 3 side chain; linkers in the order of their positions; H or OH if unused. Positions of bridges follow the written chain, without caps; N, C: chain ends. Non-standard residues stand in square brackets, D forms with d. Groups on a side chain read outwards from the residue. Primed or numbered codes have the meaning given here. No end group written: not given here. *: point of attachment. PyrS2″ = (S)-3-amino-1-((pent-4-en-1-yloxy)carbonyl)pyrrolidine-3-carboxylic acid (stapling residue), C=CCCCOC(=O)N1CC[C@@](N[*:1])(C(=O)[*:2])C1; B5(4) = 2,2-bis(4-pentenyl)glycine = 2-amino-2-(pent-4-en-1-yl)hept-6-enoic acid (stitching residue), C=CCCCC(CCCC=C)(N[*:1])C(=O)[*:2]; (CH2NMe2)4SEF = (S)-2-amino-3-(4-(3-(dimethylamino)prop-1-yn-1-yl)phenyl)propanoic acid, CN(C)CC#Cc1ccc(C[C@H](N[*:1])C(=O)[*:2])cc1; PyrS2 = (S)-3-amino-1-((pent-4-en-1-yloxy)carbonyl)pyrrolidine-3-carboxylic acid, C=CCCCOC(=O)N1CC[C@@](N[*:1])(C(=O)[*:2])C1; Lithocholoyl = C[C@H](CCC(=O)*)[C@H]1CC[C@H]2[C@@H]3CC[C@@H]4C[C@H](O)CC[C@]4(C)[C@H]3CC[C@]12C; B5(3) = 2,2-bis(4-pentenyl)glycine (stitching residue), C=CCCCC(CCCC=C)(N[*:1])C(=O)[*:2]; Me3AdamantC = 3,5,7-trimethyladamantane-1-carbonyl, CC12CC3(C)CC(C)(C1)CC(C(=O)*)(C2)C3; Phe(3-CF3) = N[C@@H](Cc1cccc(C(F)(F)F)c1)C(=O)O; Phe(4-CF3) = N[C@@H](Cc1ccc(C(F)(F)F)cc1)C(=O)O; Phe(2-CF3) = N[C@@H](Cc1ccccc1C(F)(F)F)C(=O)O; Phe(2-Cl) = N[C@@H](Cc1ccccc1Cl)C(=O)O; Ala(cPent) = N[C@@H](CC1CCCC1)C(=O)O; Bta = N[C@@H](Cc1csc2ccccc12)C(=O)O; αAllylPro = C=CC[C@@]1(C(=O)O)CCCN1; tBuAla = CC(C)(C)C[C@H](N)C(=O)O; 3Thi = N[C@@H](Cc1ccsc1)C(=O)O; S8 = C=CCCCCCC[C@](C)(N)C(=O)O; Thr(ol) = C[C@@H](O)[C@H](N)CO; Phe(ol) = N[C@H](CO)Cc1ccccc1; PEG2′ = not defined here

T1: Bcat-Halo (beta-catenin HaloTag construct transfected into HEK293 cells) (UniProt P35222 1-781)
T1 sequence (looked up): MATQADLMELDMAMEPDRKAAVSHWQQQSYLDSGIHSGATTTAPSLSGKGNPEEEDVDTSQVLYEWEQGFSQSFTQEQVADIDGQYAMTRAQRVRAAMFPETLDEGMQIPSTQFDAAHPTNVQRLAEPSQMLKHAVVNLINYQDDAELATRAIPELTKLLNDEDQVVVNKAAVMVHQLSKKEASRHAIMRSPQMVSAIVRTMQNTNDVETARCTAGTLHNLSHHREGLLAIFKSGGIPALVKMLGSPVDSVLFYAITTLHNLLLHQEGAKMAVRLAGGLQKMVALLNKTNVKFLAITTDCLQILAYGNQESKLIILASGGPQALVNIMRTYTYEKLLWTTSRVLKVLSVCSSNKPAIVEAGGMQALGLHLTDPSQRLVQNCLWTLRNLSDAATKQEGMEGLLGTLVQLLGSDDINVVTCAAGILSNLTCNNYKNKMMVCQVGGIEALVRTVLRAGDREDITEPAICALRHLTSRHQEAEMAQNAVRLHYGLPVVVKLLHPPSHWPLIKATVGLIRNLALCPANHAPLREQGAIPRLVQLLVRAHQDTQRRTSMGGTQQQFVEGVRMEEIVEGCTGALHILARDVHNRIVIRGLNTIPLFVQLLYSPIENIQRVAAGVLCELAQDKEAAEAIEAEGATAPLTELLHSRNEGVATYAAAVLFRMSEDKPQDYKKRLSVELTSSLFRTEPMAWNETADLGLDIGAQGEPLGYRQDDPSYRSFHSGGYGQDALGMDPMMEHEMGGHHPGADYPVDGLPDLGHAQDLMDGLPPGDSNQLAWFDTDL

T2: B-cat-Halo (beta-catenin HaloTag NanoBRET construct expressed in HEK293 cells) (UniProt P35222 2-781)
T2 sequence (looked up): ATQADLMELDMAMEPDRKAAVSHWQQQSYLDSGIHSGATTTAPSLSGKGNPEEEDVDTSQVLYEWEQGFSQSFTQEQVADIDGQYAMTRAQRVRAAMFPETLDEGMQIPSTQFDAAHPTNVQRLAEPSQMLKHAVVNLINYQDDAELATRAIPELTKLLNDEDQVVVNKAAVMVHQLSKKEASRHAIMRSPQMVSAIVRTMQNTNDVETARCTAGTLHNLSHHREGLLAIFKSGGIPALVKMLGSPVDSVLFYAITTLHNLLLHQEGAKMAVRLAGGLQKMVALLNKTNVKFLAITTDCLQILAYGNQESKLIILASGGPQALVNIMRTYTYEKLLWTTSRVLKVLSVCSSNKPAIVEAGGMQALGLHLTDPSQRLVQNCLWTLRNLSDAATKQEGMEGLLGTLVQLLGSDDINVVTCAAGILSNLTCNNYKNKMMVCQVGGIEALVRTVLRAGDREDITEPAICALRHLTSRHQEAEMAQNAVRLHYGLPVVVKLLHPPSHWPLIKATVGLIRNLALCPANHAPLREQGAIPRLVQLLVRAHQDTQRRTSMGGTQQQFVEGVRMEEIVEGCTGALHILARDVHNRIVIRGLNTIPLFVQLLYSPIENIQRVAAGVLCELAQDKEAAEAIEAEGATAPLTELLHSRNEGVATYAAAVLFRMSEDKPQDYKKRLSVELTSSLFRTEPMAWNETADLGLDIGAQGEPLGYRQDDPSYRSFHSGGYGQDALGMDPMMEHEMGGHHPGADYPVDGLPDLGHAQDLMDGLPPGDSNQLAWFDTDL

T3: Bcat-Halo (beta-catenin HaloTag fusion expressed in HEK293 cells) (UniProt P35222 1-781)
T3 sequence (looked up): T1 sequence (looked up)

B1: I-1356 (peptide)
peptide: [αAllylPro]D[tBuAla][B5(4)]DDAAFS[PyrS2″]F[Bta]S-NH2
modifications: staple 1-4, 4-11; not fully specified; printed as PL3-Asp-Npg-B5-Asp-Asp-Ala-Ala-Phe-Ser-PyrS2-Phe-BztA-Ser-NH2

Target: T1, Bcat-Halo (beta-catenin HaloTag …)
Experiment: cell-based or functional assay

Row | Binder | NanoBRET Abs IC50 [µM]
1 | Ac-[αAllylPro]DK(Me3AdamantC)[B5(4)]DDAAFL[PyrS2][3Thi][Bta]Q-NH2 (staple 1-4, 4-11) [I-1471] | > 20
2 | Ac-[αAllylPro]DK([PEG2′-Lithocholoyl])[B5(4)]DDAAFL[PyrS2][3Thi][Bta]Q-NH2 (staple 1-4, 4-11) [I-1470] | > 20
3 | Ac-[αAllylPro]D[tBuAla][B5(4)]DD[(CH2NMe2)4SEF]AFL[PyrS2]F[Bta]Q (staple 1-4, 4-11) [I-1467] | 9.6
4 | Ac-[αAllylPro]DK([PEG2′-Me3AdamantC])[B5(4)]DDAAFL[PyrS2][3Thi][Bta]Q-NH2 (staple 1-4, 4-11) [I-1472] | > 20

Target: T2, B-cat-Halo (beta-catenin HaloTag …)
Experiment: cell-based or functional assay

Row | Binder | NanoBRET Abs IC50 [µM]
5 | Ac-[αAllylPro]D[tBuAla][B5(3)]DDAAFN[PyrS2″][Phe(2-Cl)][Bta][Phe(ol)] (staple 1-4, 4-11) [I-1083] | 18.8
6 | Ac-[αAllylPro]D[tBuAla][B5(3)]DDAAFT[S8][Phe(2-Cl)][Bta]Q-NH2 (staple 1-4, 4-11; also: earlier eluting staple isomer) [I-1086] | 10.1
7 | Ac-[αAllylPro]D[tBuAla][B5(3)]DEAAFT[S8][Phe(2-Cl)][Bta]Q-NH2 (staple 1-4, 4-11; also: later eluting staple isomer) [I-1089] | 8.9
8 | Ac-[αAllylPro]D[tBuAla][B5(4)]DDAAFN[PyrS2″][Phe(2-Cl)][Bta]Q-NHEt (staple 1-4, 4-11) [I-1079] | 19.7
9 | Ac-[αAllylPro]D[tBuAla][B5(3)]DDAAFT[S8][Phe(2-Cl)][Bta][dT]-NH2 (staple 1-4, 4-11) [I-1092] | 7.7
10 | Ac-[αAllylPro]D[tBuAla][B5(3)]DEAAFT[S8][Phe(2-Cl)][Bta]T-NH2 (staple 1-4, 4-11) [I-1091] | 11.4
11 | Ac-[αAllylPro]D[tBuAla][B5(4)]DDAAFL[PyrS2″]F[Bta]Q-NH2 (staple 1-4, 4-11) [I-1072] | 10.5
12 | Ac-[αAllylPro]D[tBuAla][B5(3)]DDAAFN[PyrS2″][Phe(2-Cl)][Bta][Thr(ol)] (staple 1-4, 4-11) [I-1082] | 14.1
13 | Ac-[αAllylPro]D[tBuAla][B5(3)]DDAAFT[S8][Phe(2-Cl)][Bta]Q-NH2 (staple 1-4, 4-11; also: later eluting staple isomer) [I-1087] | 9.3
14 | Ac-[αAllylPro]D[tBuAla][B5(3)]DEAAFT[S8][Phe(2-Cl)][Bta]Q-NH2 (staple 1-4, 4-11; also: earlier eluting staple isomer) [I-1088] | 6.3
15 | Ac-[αAllylPro]D[tBuAla][B5(3)]DDAAFT[S8][Phe(2-Cl)][Bta]T-NH2 (staple 1-4, 4-11) [I-1090] | 6.1

Target: T3, Bcat-Halo (beta-catenin HaloTag fusion …)
Experiment: cell-based or functional assay

Row | Binder | NanoBRET Abs IC50 [µM]
16 | [αAllylPro]D[tBuAla][B5(4)]DDAAFN[PyrS2″][Ala(cPent)][Bta]Q-NH2 (staple 1-4, 4-11) [I-1352] | 19.5
17 | Ac-[αAllylPro]D[tBuAla][B5(4)]DDAAF[Phe(3-CF3)][PyrS2][Phe(2-Cl)][Bta]Q-NH2 (staple 1-4, 4-11) [I-1368] | 14.2
18 | Ac-[αAllylPro]D[tBuAla][B5(4)]DDAAF[Phe(4-CF3)][PyrS2][Phe(2-Cl)][Bta]Q-NH2 (staple 1-4, 4-11) [I-1369] | 9.9
19 | Ac-[αAllylPro]D[tBuAla][B5(4)]DDAAF[Phe(2-CF3)][PyrS2][3Thi][Bta]Q-NH2 (staple 1-4, 4-11) [I-1363] | 5.5
20 | Ac-[αAllylPro]D[tBuAla][B5(4)]DDAAF[Phe(4-CF3)][PyrS2][3Thi][Bta]Q-NH2 (staple 1-4, 4-11) [I-1365] | 9.7
21 | [αAllylPro]D[tBuAla][B5(4)]DDAAFL[PyrS2″][Ala(cPent)][Bta]Q-NH2 (staple 1-4, 4-11) [I-1353] | 8.8
22 | B1 | > 20
23 | Ac-[αAllylPro]D[tBuAla][B5(4)]DDAAF[Phe(3-CF3)][PyrS2][3Thi][Bta]Q-NH2 (staple 1-4, 4-11) [I-1364] | 10.5
24 | Ac-[αAllylPro]D[tBuAla][B5(4)]DDAAF[Phe(2-CF3)][PyrS2][Phe(2-Cl)][Bta]Q-NH2 (staple 1-4, 4-11) [I-1367] | 7.8
25 | Ac-[αAllylPro]D[tBuAla][B5(4)]DDAAFF[PyrS2][Phe(2-Cl)][Bta]Q-NH2 (staple 1-4, 4-11) [I-1366] | 7.5
26 | [αAllylPro]D[tBuAla][B5(4)]DDAAFL[PyrS2]F[Bta]Q-NH2 (staple 1-4, 4-11) [I-1361] | > 20
27 | [αAllylPro]D[tBuAla][B5(4)]DDAAFS[PyrS2″]F[Bta]S-NH2 (staple 1-4, 4-11) [I-1357] | 33.6
28 | [αAllylPro]D[tBuAla][B5(4)]DDAAFL[PyrS2]F[Bta]Q-NH2 (staple 1-4, 4-11) [I-1362] | 19.6
